Assay results published in PMC6472409, “Dishevelled-3 conformation dynamics analyzed by FRET-based biosensors reveals a key role of casein kinase 1” (Nature Communications, 2019).
Changes are numbered by the printed parent chain. Blank lines part the entries; values can stand above or below the molecule they belong to. Where a SMILES comes first, the peptide text is derived from it. [ ]: non-standard residue; d: D form. The star is where a group is joined. FITC = O=C1OC2(c3ccc(O)cc3Oc3cc(O)ccc32)c2ccc(NC(=S)*)cc21; pS = N[C@@H](COP(=O)(O)O)C(=O)O; Ahx = NCCCCCC(=O)O

Key:
[1] = molecular target: FITC-labeled peptide corresponding to the DVL3 FRMA region, non-phosphorylated (fluorescence anisotropy) (human); test: fluorescence polarisation; fluorescence anisotropy, 50 nM FITC-labeled peptide with recombinant His-tagged human CK1ε, 30 min at 37 °C, 384-well plates
[2] = molecular target: FITC-labeled peptide corresponding to the DVL3 RGPR region, non-phosphorylated (fluorescence anisotropy) (human); test: as above
[3] = molecular target: FITC-labeled peptide corresponding to the DVL3 RGCF region, non-phosphorylated (fluorescence anisotropy) (human); test: as above
[4] = molecular target: recombinant His-tagged human CK1ε (Homo sapiens, UniProt P49674); test: Fluorescence anisotropy (FA) binding of FITC-labeled peptides; conditions: FITC-Ahx peptide 50 nM, 30 min, 37 °C; n=3; read-out: affinity for recombinant CK1ε (fluorescence anisotropy)
Sequence of recombinant His-tagged human CK1ε (P49674 whole entry): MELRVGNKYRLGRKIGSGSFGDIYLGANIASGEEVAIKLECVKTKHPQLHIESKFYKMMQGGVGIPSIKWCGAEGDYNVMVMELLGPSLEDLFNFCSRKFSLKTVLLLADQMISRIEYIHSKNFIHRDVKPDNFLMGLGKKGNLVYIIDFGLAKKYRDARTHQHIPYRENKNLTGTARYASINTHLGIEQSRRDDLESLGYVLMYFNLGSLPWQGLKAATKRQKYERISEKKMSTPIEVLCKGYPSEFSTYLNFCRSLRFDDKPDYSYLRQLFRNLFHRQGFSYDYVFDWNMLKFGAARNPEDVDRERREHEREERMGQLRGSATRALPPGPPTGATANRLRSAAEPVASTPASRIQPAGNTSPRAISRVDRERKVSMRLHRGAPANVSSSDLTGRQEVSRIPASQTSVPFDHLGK
Excerpt: The peptides used in the fluorescent polarization (FA) binding assays were synthesized at Pepscan B.V. (Lelystad, Netherlands). The sequences of these peptides (indicated in Supplementary Fig. 4a) were amidated at their C-termini, and their N-termini were acylated with 6-aminocaproic acid (Ahx) modified with fluorescein isothiocyanate (FITC). The peptides used in the NMR/SPR studies were purchased from KareBay Biochem, Inc. (New Jersey, USA). The peptides for the NMR/SPR studies contained no terminal modifications.
Data were recorded at 37 °C using Tecan Infinite F500 (Tecan Systems, Germany). FITC-labeled peptides were dissolved in DMSO and added to 384-well plates (Corning) to a total volume of 20 μl (peptide final concentration was 50 nM). Incubation with recombinant His-tagged human CK1ε (MyBioSource, #MBS964562) was performed for 30 min at 37 °C. Then, fluorescence intensities were collected simultaneously by detection at 535/590 and 485/535 nm excitation/emission wavelengths, respectively, followed by adjustment to the blank controls.

[5] = molecular target: T1, PDZ domain of human DVL2 (aa 265–361), phosphorylation-mimicking variant S286E + S329E (human, UniProt O14641 265-361, S286E | S329E); test: NMR titration; 1H,15N HSQC series, 100 μM 15N-labeled PDZ with increasing amounts of peptide; 20 mM HEPES pH 6.8, 50 mM KCl; apparent KD from three fast-exchange cross-peaks; conditions: both partners purified
T1 construct: Dishevelled-2, human, PDZ domain aa 265-361 with S286E and S329E; 15N-labeled for NMR; also called S286E/S329E PDZ; PDZ phosphomimicking variant; source: E. coli BL21 (DE3), purified (Ni-NTA, TEV cleavage, ion exchange, size exclusion); not shown: His6, N-terminal, cleaved; lipoyl domain, N-terminal, cleaved
T1 sequence (looked up): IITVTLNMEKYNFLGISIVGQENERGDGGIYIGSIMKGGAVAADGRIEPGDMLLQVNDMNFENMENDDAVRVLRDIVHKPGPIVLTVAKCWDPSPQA

[6] = molecular target: T1, PDZ domain of human DVL2 (aa 265–361), …; test: SPR; Biacore T200, PDZ immobilized on CM5 chip by amino coupling, peptide injected at increasing concentrations to steady state; one-site equilibrium fit, apparent KD; conditions: both partners purified
[7] = molecular target: T2, PDZ domain of human DVL2 wild type (aa 265–361) (human, UniProt O14641 265-361); test: as above; conditions: both partners purified
T2 construct: Dishevelled-2, human, PDZ domain aa 265-361; 15N-labeled (13C/15N for assignment) for NMR; S286 and S329 correspond to S268 and S311 of human DVL3; also called DVL2 PDZ wild type; PDZ wt; source: E. coli BL21 (DE3), purified (Ni-NTA, TEV cleavage, ion exchange, size exclusion); not shown: His6, N-terminal, cleaved; lipoyl domain, N-terminal, cleaved
T2 sequence (looked up): T1 sequence (looked up) with E22S, E65S

[8] = molecular target: T3, PDZ domain of human DVL2 (aa 265–361), phosphorylation-mimicking variant S286E + S329E (human, UniProt O14641 265-361, S286E | S329E); test: NMR
T3 sequence: T1 sequence (looked up)

[9] = molecular target: T4, PDZ domain of human DVL2 wild type (aa 265–361) (human, UniProt O14641 265-361); test: NMR
T4 chain: T1 sequence (looked up) with E22S, E65S

Kd [1]: 1000 nM
Kd [2]: 1000 nM
Kd [3]: 1000 nM
Molecule: recombinant His-tagged human CK1ε (MyBioSource, #MBS964562) (from UniProt P49674 1-416) (enzyme)

Kd [4]: ~1000 nM
Molecule: CC(C)C[C@H](NC(=O)[C@H](CO)NC(=O)[C@H](CO)NC(=O)CCCCCNC(=S)Nc1ccc2c(c1)C(=O)OC21c2ccc(O)cc2Oc2cc(O)ccc21)C(=O)N[C@@H](CCCNC(=N)N)C(=O)NCC(=O)N1CCC[C@H]1C(=O)N[C@@H](CCCNC(=N)N)C(=O)N[C@@H](CCC(=O)O)C(=O)N[C@@H](CCCNC(=N)N)C(=O)N[C@@H](C)C(=O)N1CCC[C@H]1C(=O)N[C@@H](CO)C(=O)N[C@@H](CCC(=O)O)C(N)=O [RGPR] ({FITC-Ahx}-SSLRGPRERAPSE-NH2)

Kd [4]: ~1000 nM
Molecule: CC(C)C[C@H](NC(=O)[C@@H](NC(=O)[C@H](Cc1ccccc1)NC(=O)[C@H](CS)NC(=O)CNC(=O)[C@H](CCCNC(=N)N)NC(=O)[C@@H]1CCCN1C(=O)[C@H](CO)NC(=O)[C@@H]1CCCN1C(=O)CCCCCNC(=S)Nc1ccc2c(c1)C(=O)OC21c2ccc(O)cc2Oc2cc(O)ccc21)[C@@H](C)O)C(=O)N1CCC[C@H]1C(=O)N[C@@H](CCCNC(=N)N)C(=O)N[C@@H](CO)C(=O)N[C@@H](CCC(=O)O)C(N)=O [RGCF] ({FITC-Ahx}-PSPRGCFTLPRSE-NH2)

Kd [4]: ~1000 nM
Molecule: CSCC[C@H](NC(=O)[C@H](C)NC(=O)[C@H](CCSC)NC(=O)[C@H](CCCNC(=N)N)NC(=O)[C@H](Cc1ccccc1)NC(=O)[C@H](CO)NC(=O)[C@H](CCC(N)=O)NC(=O)[C@H](CCCNC(=N)N)NC(=O)CCCCCNC(=S)Nc1ccc2c(c1)C(=O)OC21c2ccc(O)cc2Oc2cc(O)ccc21)C(=O)NCC(=O)N[C@@H](CC(N)=O)C(N)=O [FRMA] ({FITC-Ahx}-RQSFRMAMGN-NH2)

fold weaker affinity than PDZ wt [5]: 2 fold
fold lower affinity than PDZ wt [6]: 2 fold
binding result [7]: binds
Kd [8]: 625000 nM
Kd [9]: 296000 nM
B1: phosphorylated (pS700) C-terminal peptide derived from DVL3 (aa 698–716) (peptide, UniProt Q92997 698-716, looked up)
peptide: H-RQ[pS]FRMAMGNPSEFFVDVM-OH
notes: Dishevelled-3, human, C-terminal aa 698-716; the last seven residues are printed as EFFVDIM; also called DVL C-terminal peptide; C-terminal DVL peptide (pS700); source: synthetic peptide, bought: KareBay Biochem
